± gives the uncertainty stated by the source.

A short description of the data set: amyloid nucleation score (Sup35N fusion, yeast selection) (log enrichment); library NNK3; higher = more nucleation; inactive = no reads after selection. A digest of the protocol:
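Yeast lacking psi expressed peptides of 20 random codons fused to Sup35N, received 100 μM copper sulfate for 24 hours, and were then grown for 7 days at 30°C on medium lacking adenine and uracil. Illumina sequencing of input and output plasmid inserts provided the reads. Nucleation scores are DiMSum log enrichments of output over input, centred on the mode of non-aggregating sequences. Any sequence with under 100 input reads was excluded.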
For the substance FFFLWGAP, the amyloid nucleation score result was “inactive”. As for FFFTSKSLGPVTLTLISVSD, the entry is “inactive”. For the substance FFIDQLKEFSHY, the amyloid nucleation score result is “inactive”. As for FFIDYIHTYRYESSASMS, the entry is “inactive”. As for FFKSLRV, the entry is “inactive”. As to FFKVSPMYY, the amyloid nucleation score result was “inactive”. The same measure for FFLIEQFYTYWMGGIMMIQR: “inactive”; for FFLTLGYVVGYQRWSYILWR: “inactive”.

FFNVMVS: the amyloid nucleation score result is “inactive”. As for FFQDQFVDWLDYTVLRI, the entry is “inactive”; as for FFREYTSSRQMNICYLSFHG, “inactive”; as for FFRQQKYSVCLFGGTFIWVV, “inactive”. As for FFSDTYSNTSPM, the entry is “inactive”; as for FFSSDDMWRYWMFSYSDNSI, “inactive”. In the case of FFSSFPFKIIEMLSFEGSFR, the amyloid nucleation score entry is “inactive”. The same measure for FFVKYVLEKCAWKY: “inactive”; for FGFCCKAPCVGSLWVPSVVT: “inactive”; for FGHIGQRRSFVIHLMHDGSP: “inactive”. As for FGILSDIVCSTVVKNCDL, the entry is “inactive”; as for FGIWCTIPWLLFRYSVDMFM, “inactive”; as for FGMPCFSSEYLLTCMVVLTG, “inactive”. The same measure for FGMSQKSSRGWGLNV: “inactive”; for FGRQVSDGVASFMSNTSLYR: “inactive”. For the substance FGTEDK, the amyloid nucleation score entry is “inactive”. As for FGTVAWPITFIIRMAVGSSC, the figure is 0.936 ± 0.15.

Take FGVGMALALCQRH: the amyloid nucleation score entry was “inactive”. As for FGVIRHERMEMWRHRSNRCV, the entry is “inactive”; as for FGVTTEF, 1.23 ± 0.14. As for FGWLTPDMKFLCTYKQRISG, the entry is “inactive”; as for FHDVMKGGI, “inactive”. The same measure for FHSSFSVYCPFNSMLASV: 0.005 ± 0.58; for FHSSS: “inactive”; for FHVTVFWNRHNSDLMVLHR: “inactive”. For the substance FHYCCYITAAQYYDACCVVP, the amyloid nucleation score entry was “inactive”. The same measure for FHYRENVNREHSPFWSREMV: “inactive”. The same measure for FICVAIGTFCFIEMMHLIGR: 1.23 ± 0.086; for FIGDGSRDRRDGLLDLY: “inactive”. As for FIGFSAWWNGMDNVRVLASS, the amyloid nucleation score is -0.269 ± 0.73. The same measure for FIIWAMDWVFASRL: “inactive”; for FIKLKGL: “inactive”.

Turning to FIKYFANLRKFCDILSCSL, the amyloid nucleation score worked out at 1.27 ± 0.14. With FILGWCGIYSTACPNTSTGT, the amyloid nucleation score entry is “inactive”. As for FILSVCYARRDLTLKRTPSR, the entry is “inactive”; as for FIPPSLCIITS, “inactive”. Turning to FIQYEHNLPGTARGKCIQC, the amyloid nucleation score entry is “inactive”. The same measure for FISSSSTRILQYGRYTVEIN: “inactive”; for FIWVFCD: “inactive”. The same measure for FKCTVIGDTILPNTFSLWRF: “inactive”; for FKDFIIICLAKLFGIFYDTD: “inactive”. The same measure for FKDVSVPIR: “inactive”; for FKKCVDLKHYNVSMDVRCVL: “inactive”; for FKLRTDIAMDINVGQDLSGL: “inactive”. On to FKLSMLA, for which the amyloid nucleation score result was “inactive”. FKPTRSHQGSFSSVTMFLVG came in with an amyloid nucleation score of 0.261 ± 0.29.

Consider FKYYRSYYPYICLKSVI, for which the amyloid nucleation score entry was “inactive”. As for FLALDQISFVIRCLNI, the entry is “inactive”.

For the substance FLANGSDWIFLWFRIHVDHF, the amyloid nucleation score result was “inactive”.

Take FLAYGWWHYKWSGNDTLHSF: the amyloid nucleation score entry was “inactive”. The same measure for FLCSTVIISNVLMRPAYYVR: “inactive”. As for FLCVRSFRFVCVLFFNDIT, the entry is “inactive”; as for FLDDLTLVHGRSETKKNL, “inactive”; as for FLDIRMMIRRLTGGPESVSL, “inactive”.

FLGDYRILSLLFYI showed an amyloid nucleation score of 2.49 ± 0.053. The same measure for FLGSLVSLRCKWFVAF: 0.292 ± 0.75. Consider FLILSNEIMPLFTWANKRLE, for which the amyloid nucleation score result was “inactive”. The same measure for FLKYTITHLCSRPRIYLGIS: 0.16 ± 0.22. As for FLLIILTLYASTCRAQYAFR, the figure is 1.42 ± 0.15; as for FLMNHVLQNW, “inactive”; as for FLNFSGLPGFVCPVIPSHYV, “inactive”. The same measure for FLNSCQNMQVPSGKFNSSKV: -0.122 ± 0.82.

As for FLPPKMVLFPVSEWSLDLRY, the amyloid nucleation score entry was “inactive”. As for FLPPTVINVVHAYRRFSSDR, the figure is 1.71 ± 0.098.

In the case of FLSCNTCWGMTNANLSDNFN, the amyloid nucleation score turned out to be 2.05 ± 0.071. The same measure for FLSPSGVD: “inactive”.

Regarding FLTDASWGSIFWKFLRASFV, the amyloid nucleation score was 0.621 ± 0.14.

FLTRIHFLCTCVRRNG returned an amyloid nucleation score of 1.37 ± 0.1. The same measure for FLVIPWDEEKCRLSDLFASN: “inactive”. As for FLVNPVCSMVSSYCSFPSPK, the figure is 2.52 ± 0.062; as for FLYSVL, “inactive”; as for FMFASQLMRFFHSWTVSRSS, “inactive”. The same measure for FMFVVWGYINGFGYLTGVN: “inactive”.

Consider FMGLGLQLRLIHLSRG, for which the amyloid nucleation score result is “inactive”.

As for FMLGDAVFRFFVRNGGRIDN, the amyloid nucleation score entry was “inactive”. The same measure for FMMFIL: 1.42 ± 0.1; for FMSSSPDSYCEKGKRQ: “inactive”; for FMTWHFENCCWCRHSRFGLL: “inactive”. The same measure for FMVGR: “inactive”; for FNAGYWGMSSKVSNESRWVY: “inactive”. Take FNCGPCIVLEWYFTSVAGQG: the amyloid nucleation score turned out to be 2.1 ± 0.071.

With FNDVLMAVITLSVIDTLMWT, the amyloid nucleation score entry is “inactive”.

In the case of FNFLVMILGITLPNNITFEH, the amyloid nucleation score came out at 0.279 ± 0.17. The same measure for FNIMVYCNESSL: “inactive”; for FNKGYV: “inactive”; for FNKLVWNHLSGCV: “inactive”. As for FNLNESSGYVKFYLNGNRPL, the entry is “inactive”; as for FNRKCVSVCRVRGGICWRSQ, “inactive”; as for FNSFCAYNTRHYYVVLGGIV, 1.04 ± 0.13. As for FNSRNSVVTDLRYWSIRGLV, the entry is “inactive”; as for FNVRWGWLGDLIYGGFLHVG, “inactive”. With FNWFCLFLWMRNRSKPFWTM, the amyloid nucleation score entry is “inactive”. As for FNWLGLGLMLGIDRDRCDNV, the entry is “inactive”.

On to FNWRLSSITDSSVYLPSWNL, for which the amyloid nucleation score result was “inactive”. Take FNWTN: the amyloid nucleation score entry was “inactive”. The same measure for FPHRMLRPCYESDTFPPWTG: “inactive”; for FPKLAIVFMHSSLWYFSYWV: “inactive”. Regarding FPLDRGYSVTGDMRMPPAVR, the amyloid nucleation score result was “inactive”. As for FPLESG, the amyloid nucleation score entry was “inactive”.

Regarding FPQFLSIAGPKPHCKN, the amyloid nucleation score result was “inactive”. FPVYQCWLSN: the amyloid nucleation score result is “inactive”.

As for FQCMFYFIFSRCQHLVYCHF, the amyloid nucleation score entry was “inactive”. As for FQCWYNKIRKFWVVHRWVSM, the entry is “inactive”; as for FQMVA, “inactive”. For FRLMVGCCYGGPGREVWAGG, the amyloid nucleation score result is “inactive”. Consider FRLRGLKLTSNMDDWMLIKE, for which the amyloid nucleation score result is “inactive”.

As for FRNNRRRAVMCSGFMFRFNF, the amyloid nucleation score entry is “inactive”. The same measure for FRQYKSPGDLPRMDAVACGK: -0.832 ± 2.5; for FRSAN: “inactive”. As for FRYRLWAMRDVKHSYDFSLW, the entry is “inactive”; as for FSACRDRTLGDHGQQPRDIG, “inactive”.

FSAGGVPYYICYSCIAKFRL: the amyloid nucleation score result was “inactive”.

With FSAIRVLYSVKTELDSNNMY, the amyloid nucleation score was 0.822 ± 0.24. As for FSASVVSTGINTSY, the entry is “inactive”; as for FSCDIAVILNLDLTMVDLLF, “inactive”.

On to FSCMTADSNSGIVRVR, for which the amyloid nucleation score entry is “inactive”.

In the case of FSEASPLYVTSPRQSSLPRP, the amyloid nucleation score entry is “inactive”.

Regarding FSFITL, the amyloid nucleation score entry was “inactive”.

On to FSFTRNERIDSLCSNAHSFT, for which the amyloid nucleation score entry is “inactive”. The same measure for FSFWTTSN: “inactive”. As for FSGATSFNQIYAVRTSCLFV, the figure is 1.01 ± 0.18; as for FSGFTVR, “inactive”. Turning to FSGNGSSYYASSMNGDTVFL, the amyloid nucleation score entry is “inactive”.

(Values after the supplement of paper PMC12042874.)
